Measured values from paper PMC10509167, “Identification and characterization of endo-α-, exo-α-, and exo-β-D-arabinofuranosidases degrading lipoarabinomannan and arabinogalactan of mycobacteria” (Nature Communications, 2023).

Target: the molecule itself
Assay: crystal structure; ExoMA2 in complex with Tris (1.75 Å) and with β-D-Araf (1.35 Å); dimer in the asymmetric unit; sitting-drop vapor diffusion, 20 °C

B1: ExoMA2 (MIAR_33170), GH116 exo-β-D-arabinofuranosidase from Microbacterium arabinogalactanolyticum, recombinant (enzyme, UniProt A0AAJ6N6D6 1-867, looked up)
chain: MSKIKSRRARRIPHTAESVAFPLGGIGTGNVSLGARGELRDWEFENLPDKGRLNPRSFFAIHAAPQGGPSATRVLEARSSGRHDRDAGYGFDELAGLPRLDSAGLHGEYPVVDIDFTDATLPVTVSLHAFTPLVPLDADASGIPAAVLRYRVVNPGDAPVTVTVVGSMSHTAGRGAPGPDAPWGMRGTQSVRWRESDGIRGLDFDIDLDHDDPGYGTMSLTTTDSSTTVKPQWVTSYWPDGARLFWNDLADDGLLAPEARLTLEDKPRGLFAERDADPDAPALTEEQMLAKLPRVRTGSLGIVHTLAPGEERDFEFVLAWSFPNRRRGWHGHIIFDDALEDGAPDLRDELGPIVRNHYAVRWPDAWAAAAQLHRDLPALEGATDAFVEELYGGSLDPVLADAVGANIAALRSTTCFVLESPTPELGDGPVFAAWEGSFDHGGSCEGTCTHVWSYAQTAAWLFPGLERSARRAEYLLETDESGAQKFRGNRIFGAPRWFIGPAVDGQLGTFLRLHREWRFCGDDEFLRELWPAAARTLDYAAREWDHDGDGLLDGEMHNTYDIEFHGVEPLSNIIHLAALRAGVRMAGHLGDTARAQEWALRADHVAAAIEGVLWNGEYYRQVIDDVDAHRYQYGDGVLSDQLLGQFHAFLGGLGYLLPEAHVRSALDAIVQHNHRGDLRDHESTQRVYALNDEGGLLLASWPEGGRPALPFVYADEVWTGIEHQVAVSLLFAGRYDDALRIERTLRARYDGAHRSPWNEIECGNHYARSLASWGLLIGASGAQWDAGARTLSFDPVLPGDARFLFTTATGWGGVEIGDDVITLRLHGGALDLDELRLRGEVAGRGIHLDAGETRTLTLTLEHHHHHH
notes: ExoMA2, product of gene MIAR_33170 of Microbacterium arabinogalactanolyticum JCM 9171; primers are in Supplementary Data 3; source: E. coli BL21 (DE3), purified (IMAC, anion exchange chromatography, SEC)
stoichiometry N: 2
